Assay [1] concerns the target EV71 2C 116–329 (enterovirus 71) (UniProt Q66478). The assay can be described thus: SEC. (In general: SEC sorts molecules by how far they enter the pores of the column.)
Assay [2] concerns the target EV71 2C 116–329 E325A (enterovirus 71). The assay can be described thus: SEC.

For “EV71 2C 116–329 (from UniProt Q66478 117-330) (domain or fragment)”, the stoichiometry N in assay [1] amounted to 4.
Regarding “EV71 2C 116–329 E325A (domain or fragment)”, the stoichiometry N in assay [2] is 2.

A word on the stoichiometry N: it is a count of units in the complex or per binding partner.

These data come from paper PMC5409451.
